Test results from patent US9365599B2, “N3S1 chelator-folate derivatives, preparation method thereof and composition for diagnosis or treatment of cancer containing the same as an active ingredient” (KOREA ATOMIC ENERGY RESEARCH INSTITUTE, priority 2012, dated 2016).

Tests used:
in vivo = assay: in vivo; parameters: species or system mice; conditions: female, nude, mouse, iv, 370 kBq, total radioactivity
Protocol: (§1) The stock solution of the ^99mTc-labeled PKCK-fol-OH used in the animal studies was prepared for 10^−8 mol/ml with an activity of 370 MBq. Solutions for injection were prepared by the dilution of the stock solution to obtain a desired volumetric activity of 3.7 MBq/ml. The biodistribution experiments for the ^99mTc-labeled PKCK-fol-OH were performed with KB-bearing female nude mice (provided by OrientBio, Republic of Korea). […] After tumor was allowed to grow for 2-3 weeks, the mice were administered 370 kBq (10 uCi)/100 μl intravenously. At 30 min, 1 hr, 3 hr and 24 hr, the animals were sacrificed.
(§2) Table 1 below lists biodistribution results measured at 30 min, 1 hr, 3 hr and 24 hr after injection.

KB tumor xenograft = assay: in vivo; parameters: species or system mice; conditions: mouse, iv
Protocol: as §1, §2

[1] = test system: FR-positive KB tumor cells; assay: Time-dependent cell uptake (membrane bound and internalized fraction) in FR-positive KB cells; type: cell-based, human; conditions: 37° C., 10-180 min
Protocol: FR-positive KB tumor cells (human oral epidermoid carcinoma) which overexpress FR were grown in T-flask until 80%-90% confluence at 37° C. and 5% CO2 with folid-acid free (deficient) RPMI 1640 medium (FFRPMI) containing 10% heat-inactivated fetal bovine serum (FBS). […] Cells were rinsed twice with ice-cold PBS and pre-incubated with 850 μl of fresh FFRPMI without FBS at 37° C. for 30 min. […] After incubation, the well plates were washed twice with ice-cold PBS.
After that, the cells were washed with an acid wash buffer (50 mM glysine-HCL buffer, pH 2.4), to remove membrane bound radioligand, and the supernatant was collected to measure the membrane bound fraction of radioactivity. Cells were lysed with 1N NaOH, transferred and measured the internalised fraction of radioactivity with γ-counter. Counted radioactivity in membrane bound fraction and internalized fraction could be ascribed to the sum of cell uptake. The cell uptake data was expressed as % cell uptake (cell uptake/total added activity). Each data represents a result of the […] of triplicate wells. The affinity of PKCK-fol was determined using competitive binding assay. ^99mTc-PKC-fol was used as radioligand in this assay. Cells were harvested with typsin and washed with PBS buffer, and 8×10^5 cells were seeded in 12-well plates. […] After that, the cells were collected to measure the radioactivity with γ-counter. […]

folate-receptor (FR) = molecular target: T1, folate-receptor (FR) (Homo sapiens, UniProt P15328); assay: Competitive binding assay on FR-positive KB cells with 99mTc-labeled folate radioligand
T1 construct: FR-positive KB tumor cells (human oral epidermoid carcinoma) which overexpress FR; endogenous in cells; host or cells: KB cells (human oral epidermoid carcinoma)
T1 sequence (P15328 25-234): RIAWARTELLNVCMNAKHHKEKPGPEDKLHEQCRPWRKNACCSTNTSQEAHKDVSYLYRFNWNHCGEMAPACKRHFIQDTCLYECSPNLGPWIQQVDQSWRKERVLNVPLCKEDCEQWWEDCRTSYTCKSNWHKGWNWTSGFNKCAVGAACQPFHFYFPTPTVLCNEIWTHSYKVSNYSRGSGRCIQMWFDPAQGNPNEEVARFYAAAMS
Protocol: After that, the cells were washed with an acid wash buffer (50 mM glysine-HCL buffer, pH 2.4), to remove membrane bound radioligand, and the supernatant was collected to measure the membrane bound fraction of radioactivity. Cells were lysed with 1N NaOH, transferred and measured the internalised fraction of radioactivity with γ-counter. Counted radioactivity in membrane bound fraction and internalized fraction could be ascribed to the sum of cell uptake. The cell uptake data was expressed as % cell uptake (cell uptake/total added activity). […] Cells were harvested with typsin and washed with PBS buffer, and 8×10^5 cells were seeded in 12-well plates. […] After that, the cells were collected to measure the radioactivity with γ-counter.

## NCCCC[C@H](NC(=O)[C@@H]1CCCN1)C(=O)N[C@@H](CS)C(=O)NCCCC[C@H](NC(=O)CC[C@H](NC(=O)c1ccc(NCc2cnc3nc(N)[nH]c(=O)c3n2)cc1)C(=O)O)C(=O)O (99mTc complex, metal not drawn) [Example 10]
In vivo; Blood uptake
  tissue uptake at 0.5 h: 0.64 ± 0.26 %ID/g
  tissue uptake at 1 h: 0.36 ± 0.06 %ID/g
  tissue uptake at 3 h: 0.18 ± 0.05 %ID/g
  tissue uptake at 24 h: 0.06 ± 0.02 %ID/g
In vivo; Heart uptake
  tissue uptake at 0.5 h: 2.25 ± 0.47 %ID/g
  tissue uptake at 1 h: 1.73 ± 0.27 %ID/g
  tissue uptake at 3 h: 1.03 ± 0.32 %ID/g
  tissue uptake at 24 h: 0.1 ± 0.06 %ID/g
In vivo; Kidney uptake
  tissue uptake at 0.5 h: 76.5 ± 5.04 %ID/g
  tissue uptake at 1 h: 77.2 ± 5.43 %ID/g
  tissue uptake at 3 h: 41.5 ± 12.1 %ID/g
  tissue uptake at 24 h: 7.49 ± 1.9 %ID/g
In vivo; Lg Int uptake
  tissue uptake at 0.5 h: 2.43 ± 1.38 %ID/g
  tissue uptake at 1 h: 3.43 ± 0.73 %ID/g
  tissue uptake at 3 h: 1.48 ± 0.64 %ID/g
  tissue uptake at 24 h: 1.38 ± 0.86 %ID/g
In vivo; Liver uptake
  tissue uptake at 0.5 h: 7.21 ± 1.58 %ID/g
  tissue uptake at 1 h: 5.42 ± 1.85 %ID/g
  tissue uptake at 3 h: 2.83 ± 0.6 %ID/g
  tissue uptake at 24 h: 1.09 ± 0.07 %ID/g
In vivo; Lung uptake
  tissue uptake at 0.5 h: 1.7 ± 0.35 %ID/g
  tissue uptake at 1 h: 1.45 ± 0.33 %ID/g
  tissue uptake at 3 h: 0.63 ± 0.26 %ID/g
  tissue uptake at 24 h: 0.12 ± 0.06 %ID/g
In vivo; Sm Int uptake
  tissue uptake at 0.5 h: 0.93 ± 0.54 %ID/g
  tissue uptake at 1 h: 0.43 ± 0.05 %ID/g
  tissue uptake at 3 h: 0.27 ± 0.12 %ID/g
  tissue uptake at 24 h: 0.1 ± 0.05 %ID/g
In vivo; Spleen uptake
  tissue uptake at 0.5 h: 0.47 ± 0.13 %ID/g
  tissue uptake at 1 h: 0.36 ± 0.03 %ID/g
  tissue uptake at 3 h: 0.3 ± 0.07 %ID/g
  tissue uptake at 24 h: 0.1 ± 0.03 %ID/g
In vivo; Stomach uptake
  tissue uptake at 0.5 h: 1.92 ± 0.26 %ID/g
  tissue uptake at 1 h: 1.2 ± 0.05 %ID/g
  tissue uptake at 3 h: 0.55 ± 0.16 %ID/g
  tissue uptake at 24 h: 0.13 ± 0.04 %ID/g
In vivo; Tumor uptake
  tissue uptake at 0.5 h: 2.6 ± 0.53 %ID/g
  tissue uptake at 1 h: 2.96 ± 0.51 %ID/g
  tissue uptake at 3 h: 2.24 ± 0.27 %ID/g
  tissue uptake at 24 h: 0.91 ± 0.28 %ID/g
In vivo; Tumor/blood ratio
  tissue to tissue ratio at 0.5 h: 4.38 ± 0.92
  tissue to tissue ratio at 1 h: 8.35 ± 1.12
  tissue to tissue ratio at 3 h: 13.2 ± 2.78
  tissue to tissue ratio at 24 h: 15.2 ± 4.36
In vivo; Tumor/kidney ratio
  tissue to tissue ratio at 0.5 h: 0.03 ± 0.01
  tissue to tissue ratio at 1 h: 0.04 ± 0.01
  tissue to tissue ratio at 3 h: 0.06 ± 0.01
  tissue to tissue ratio at 24 h: 0.12 ± 0.02
In vivo; Tumor/liver ratio
  tissue to tissue ratio at 0.5 h: 0.38 ± 0.14
  tissue to tissue ratio at 1 h: 0.58 ± 0.17
  tissue to tissue ratio at 3 h: 0.82 ± 0.2
  tissue to tissue ratio at 24 h: 0.83 ± 0.24
KB tumor xenograft
  uptake in other organs (lung, heart, stomach and intestines): kept at a low level
[1]
  cell affinity and internalization rate: increased time dependently

## NCCCCC(NC(=O)C1CCCN1)C(=O)NC(CS)C(=O)NCCCCC(NC(=O)CCC(NC(=O)c1ccc(NCC2=NC3C(=O)NC(N)=NC3N=C2)cc1)C(=O)O)C(=O)O (stereo not shown) [Example 1, PKCK-Fol-OH]
folate-receptor (FR)
  IC50: 160 nM
